Results reported in patent US20250034594A1, “RNA-GUIDED GENOME RECOMBINEERING AT KILOBASE SCALE” (THE BOARD OF TRUSTEES OF THE LELAND STANFORD JUNIOR …, priority 2021, published 2025).

B1: SSAP_307: SEQ ID NO: 476; Acetobacterium dehalogenans (protein)
chain: CLRSWTRSFSNSVPLKIRFRLLYTAFLSQGSPLSSVNTTQSADKGSPIFFYAMFKTKDGGYGFEVMSVEDVRAHAKKYSQSFSSAYSPWSKNFEEMAKKTVLKKALKYAPLKSDFVRGIVVDETIKREISEDMYAAPSIEIEYEVDEDGVIQDEPTSNELTEAEK
modifications: Acetobacterium dehalogenans
B2: SSAP_19: SEQ ID NO: 188 (protein)
chain: NTPTMKRKFEEVLHENANAFMSNVMTLVSNDSYLAESEPMSILSGALTAATLNLGLDKNLGYAYLVPFNTKNKQTGKWERKAQFILGYKGYIQLAQRSGKYKALNVIEVYEGELLSWNRLTEEFEFDPNGRQSDDVIGYVGYFELLNGFKKTVYWTKQEIEAHRIANSKDKEKTKLSGVWATDYNAMARKTVLRNMLSKWGILSIEMQEATTSDEKVQQMQEDGNIISETEVEENTTMKTAEVINEADSDSLNQTDLFDTKNPPLE
B3: SSAP_159: SEQ ID NO: 328; Clostridium hathewayi CAG: 224 (protein, listed as Clostridium hathewayi)
chain: ANDIRGELARRASGTETQAVKLTKNMSIPDMIKALEPEIKRALPTILTPERFTRIALSAINNTPKLAECSPMSFIAALMNAAQLGLEPNTPLGQAFLIPYKVKGSLECQFQIGYRGMIDLAYRNERVQSIEAHTVYENDVFEYELGLNPRLVHIPTMEEPGDPIAFYGIFRLDNGGFRFEVMNKNAIDAYAARYSKAYDSASSPWKNNYESMACKTVLKQLLKYSPMKSEFQKAVSMDESVKTELSVDMSEVQNVNLIEETQEDAA
B4: SSAP_122: SEQ ID NO: 291; Clostridium transplantifaecale (protein)
chain: TDVKEELARKAGNTGKQEIRLNKNMSIPDMVKVLEPEIKRALPSVLTPERFTRMALSAINNTPKLAECSPMSFIAALMNAAQLGLEPNTPLGQAYLIPYKNKNQLECQFQIGYKGYIDLAYRTGQVQMIQAQAVHEFDYFEYEYGLTPKLVHRPGEGERGEITYFYGLFKMINGGFGFEVMNRAAMDAFAKQYSQSINSKYSPWNSQYEEMAKKTIIKKALKYGPVKSDFQKAISMDESIKTELSIDMSEVRNEDLIDGEFEEAA
modifications: Clostridium transplantifaecale
B5: SSAP_59: SEQ ID NO: 228 (protein)
chain: SEIQQQAEAQTQAHPTAVLDDYRGAIASVAPPGTNIDLFIRMTKSNVNRSDEIVAAVKRNPGLFMQAVMDSAALGHIPGSEYYYLTPRRDGISGIESWKGVAKRIFNTGRYQRIVCEVVYEGEQWEFQPGEDLKPKHVIDWDARQVGSKVRFTYAYAVDFEGNPSTVAVCTKLDLDKAQKQSRGKVWDQWYEQMAKKTAIKRLEDFVDTSAVDLRADGSSRRHSAEVAE
B6: SSAP_117: SEQ ID NO: 286; Enterocloster bolteae (protein, listed as Enterocloster bolteae)
chain: GVNVKHELEQRAAGQGASVRLTKNMTIVDMVKALEPEIRRALPAVLTPERFTRMALSSINNTPELAECTPMSFIAALLNAAQLGLEPNTPLGQAYLIPYKNKGKLECQFQLGYKGLIDLAYRTGQVQIIQAQVVREFDSFEYQYGLDSKLVHKPGEGARGEITYVYGLFKLSNGGYGFEVSNKTEMDTFAARYSKSFGSKYSPWTEDYESMAKKTVIKRVLKYAPISSDFQKALSMDETIKTGIAVDMSEIRNECLPEEAGSEAA
B7: SSAP_111: SEQ ID NO: 280; Siminovitchia fordii (protein, listed as Siminovitchia fordii)
chain: ATNQDIKNQLANKANGNKPASPANTIAAYLKKMGPEIEKALPKHMDADRLARIALTTIRTTPKLLECNISSLMGAVMQSAQLGLEPGLIGHCYIIPYGKEATFIIGYKGMIDLARRSGQIQNIYAHAVFENDEFDYALGLHPKLEHKPAGSNRGEIIGAYAVAHFKDGGYQFEYMAKEDIEKRKSRSAAARSKHSPWATDYEEMAKKTVIRHMWKYLPISVEIQQQAIQDEVVRKDVTSEPEFIDMEDMPEVEEGQSEESEQVEAPFD
B8: SSAP_268: SEQ ID NO: 437; Oceanobacillus sp. E9 (protein, listed as Oceanobacillus sp.)
chain: ATNDSLKNQLSSKQGNQNTPSGYTIKQLMGAESVKKRFEEMLDSKASQFMASVINLVNGDTNLQKCDQMSVVSSAMVAATLDLPIDRNLGYAWVIPYGNQATFQLGYKGYIQLALRSGQYRNINVIEVYEGELQSFNRLTEEIELDFEKRTSDKVIGYTGFFELINGFRKTVYWSKAEIEKHKNKFSKSGFGWKNDWDAMAKKTVVRNMLNKWGILSIDMQKAYVEETKDPSEPNGEVIDLNLTEDELTAAQEQFSDENANE
B9: SSAP_278: SEQ ID NO: 447; Paraliobacillus ryukyuensis (protein, listed as Paraliobacillus ryukyuensis)
chain: ATNDTLKNQISNKKNNQVAEGKQGTTMKGLLNSPAVMKRFEEVLGKRANQFTASILSLYNNEKTLQKSEPMSVISSAMIAATLDLPIDKNLGYAWIVPYGNKAQFQLGYKGYIQLALRTGQYRNINVIEVYEGELVKWNRLTEELELDFEQKKSDKVIGYTGYFELINGFRKTVYWSKADIEKHKQKFSKSNFGWSNDWDAMAKKTVIRNMLNKWGILSIDMQKAYSTDEIEQEQESNDFIDGEWAEVSEDDITEAMNEV
B10: SSAP_308: SEQ ID NO: 477; uncultured organism (protein)
chain: SNELQNIKPEVFGEVEDKLGSLADNNGIDLPENYSARNALKQAYLKLQSKDEPVFDKYKDETIYNALLDTLTQGLNPGKDQVYYIGYGNHLTAQKSYFGNIALAKRMAGVQEVSSNVILEGDEVDISIERGQQVIESHDRNFDSMDGQVKGAYAVISFEDERKDKYEIMTLKELKQAWAQGKSFGGNGKSPHHKFTKEMAKKTVINRALKPLIKASDDSGLIKEKPKLEKLKDGQQERTEGEKIEEVDVDKEEVVEVDYDV
modifications: uncultured organism
B11: SSAP_141: SEQ ID NO: 310; Hungatella hathewayi (protein, listed as Hungatella hathewayi)
chain: RRDRNVTAVKQELEKKAAGTSQAVKLTKNMTIVDMVKALEPEIKRALPSILTPERFTRMALSAINNTPKLAECTPMSFIAALMNAAQLGLEPNTPLGQAYLIPYKNKGVLECQFQLGYRGMIDLAYRNERMQSIEAQTVYEHDEFFYELGLHPALVHRPTFEDRGEIRAFYAIFRLDNGGYRFEVMSKSYVDAYAMRYSKAFTSEFSPWKSNYEGMAKKTVIKQLLKYAPVKSEFQKAITLDETVKTELSVDMSEVQNEDLSETLTAESAA
B12: SSAP_151: SEQ ID NO: 320; Mammaliicoccus (protein, listed as Mammaliicoccus sp.)
chain: ATNESIKNQVASRKKNEVQNKSPKTQLNDLLIKMGPEIQRALPKHMDADRMARIAMTAVSTTPKLLECDQMSFIGALMQASQLGVEPNTGLGQAYLIPYGGKVQFQLSYKGLIDLATRSGQYKAIYAHEVFPNDEFNYQYGLFKNLEHIPSQEPEGEPIGYYAVYHLKNGGYDFVYWTRERVDKHAKDFSQAVQKGWTSPWKTNYDAMAKKTVLKEVLKYAPKSIEMNKAVNSDSTIKDEINEDMSSVIDITDYEEVNDQQEEKKEESK
B13: SSAP_119: SEQ ID NO: 288; Bacillus albus (protein, listed as Bacillus albus)
chain: ATNEKLKNQLANRKESAPATPEQTVEAYMKKMAPKMAEVLPKHMDMGRMSRMALTTMRTSPKLLNCTVSSLMGAVMQAVQLGLEPGLLGHCYILPYKGEATFIIGYKGMIDLARRSGHIQSIYAHAVHENDEFDYELGLHPKLEHKPVHGDRGAFVGAYAVAHFKDGGYQMEFMPKSEIEKRRKRSASANSSFSPWKSDYEEMAKKTVIRYIFKYLPISIEVQLLAAQDEVVRKDITEEPEFIEADPIDVEQPTTEGDGQQEFSIEE

test system: gene editing with dCas9; assay: Screen of 322 new SSAP proteins, gene editing activity with dCas9 (Table 5); type: cell-based; set-up: dCas9 with SSAP activity: scale not given here; details: not given
Summary of the method: (§1)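 Read-out is gene editing activity. Candidates come from sequence data mining, are made synthetically, and are tested alongside either nuclease-active Cas9 or catalytically dead dCas9.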

Going from B1 to B2, the “dCas9 with SSAP activity” value falls from −1.100 to −1.396.

Going from B3 to B4, the “dCas9 with SSAP activity” value rises from −1.156 to −1.142.

Compared with B5, B6 is lower in “dCas9 with SSAP activity” value: −1.201 for the first, −1.263 for the second.

Going from B7 to B8, the “dCas9 with SSAP activity” value rises from −1.417 to −1.151.

First: B9
Second: B10
The “dCas9 with SSAP activity” value of the first is higher: −1.129 for the first, −1.277 for the second.

First: B11
Second: B12
The “dCas9 with SSAP activity” value of the first is higher: −1.179 for the first, −1.257 for the second.

B13 was tested, and the “dCas9 with SSAP activity” value was −1.189.

same assay, conditions: normalized

Going from B1 to B2, the “dCas9 with SSAP activity (normalized)” value rises from −0.907 to −0.389.

First: B3
Second: B4
The “dCas9 with SSAP activity (normalized)” value of the first is lower: −0.358 for the first, −0.148 for the second.

First: B5
Second: B6
The “dCas9 with SSAP activity (normalized)” value of the first is lower: −0.336 for the first, −0.179 for the second.

Going from B7 to B8, the “dCas9 with SSAP activity (normalized)” value rises from −0.419 to −0.400.

Compared with B9, B10 is lower in “dCas9 with SSAP activity (normalized)” value: −1.000 for the first, −1.011 for the second.

Compared with B11, B12 is lower in “dCas9 with SSAP activity (normalized)” value: −0.244 for the first, −0.422 for the second.

For B13, the “dCas9 with SSAP activity (normalized)” value was −0.361.

test system: gene editing with Cas9; assay: Screen of 322 new SSAP proteins, gene editing activity with Cas9 (Table 5); type: cell-based; set-up: Cas9 with SSAP activity: scale not given here; details: not given
Summary of the method: as §1

Compared with B1, B2 is higher in “Cas9 with SSAP activity” value: −1.090 for the first, −0.298 for the second.

Going from B3 to B4, the “Cas9 with SSAP activity” value falls from 1.622 to 1.429.

Compared with B5, B6 is lower in “Cas9 with SSAP activity” value: 0.218 for the first, −4.474 for the second.

First: B7
Second: B8
The “Cas9 with SSAP activity” value of the first is higher: 0.173 for the first, −0.160 for the second.

Going from B9 to B10, the “Cas9 with SSAP activity” value falls from 1.070 to −0.693.

First: B11
Second: B12
The “Cas9 with SSAP activity” value of the first is higher: −2.047 for the first, −4.713 for the second.

B13 was tested, and the “Cas9 with SSAP activity” value was −0.911.

same assay, conditions: normalized

Compared with B1, B2 is higher in “Cas9 with SSAP activity (normalized)” value: −2.185 for the first, −0.329 for the second.

Compared with B3, B4 is lower in “Cas9 with SSAP activity (normalized)” value: 2.756 for the first, 0.558 for the second.

Going from B5 to B6, the “Cas9 with SSAP activity (normalized)” value falls from 0.538 to −1.192.

Compared with B7, B8 is lower in “Cas9 with SSAP activity (normalized)” value: 0.129 for the first, −0.383 for the second.

Going from B9 to B10, the “Cas9 with SSAP activity (normalized)” value falls from 2.231 to −1.286.

Going from B11 to B12, the “Cas9 with SSAP activity (normalized)” value rises from −0.694 to −0.683.

For B13, the “Cas9 with SSAP activity (normalized)” value was −3.635.

test system: gene editing with Cas9 and dCas9; assay: Screen of 322 new SSAP proteins, activity across all experiments (Cas9 and dCas9, Table 5); type: cell-based; set-up: scale not given here; details: not given
Summary of the method: as §1

First: B1
Second: B2
The “Activity across all experiments” value of the first is lower: −1.095 for the first, −0.847 for the second.

First: B3
Second: B4
The “Activity across all experiments” value of the first is higher: 0.233 for the first, 0.144 for the second.

Going from B5 to B6, the “Activity across all experiments” value falls from −0.491 to −2.868.

Going from B7 to B8, the “Activity across all experiments” value falls from −0.622 to −0.656.

Going from B9 to B10, the “Activity across all experiments” value falls from −0.030 to −0.985.

Going from B11 to B12, the “Activity across all experiments” value falls from −1.613 to −2.985.

In the case of B13, the “Activity across all experiments” value is reported as −1.050.
